What was measured:
[1] = Coatest SP4 chromogenic assay, 293T media; conditions: control: WT full-length FVIII
[2] = chromogenic activity / ELISA antigen ratio in media; conditions: control: WT full-length FVIII
[3] = FVIII antigen ELISA, 293T cell extracts; conditions: control: WT full-length FVIII
[4] = FVIII antigen ELISA, 293T conditioned media; conditions: control: WT full-length FVIII
[5] = anti-FLAG IP/blot of 293T conditioned media; conditions: glycan lost
[6] = anti-FLAG IP/blot of media, TM 2 μg/ml 12 h; conditions: glycan lost; control: same construct, untreated

Substance: Coagulation factor VIII (FVIII): D2131N
- other: cofactor (coagulant) activity in conditioned media, percent_of_wt ([1]; glycan gained): decreases
- other: relative (specific) cofactor activity, percent_of_wt ([2]; glycan gained): decreases
- expression_or_secretion, percent_of_wt ([3]; glycan gained): no change
- expression_or_secretion, percent_of_wt ([4]; glycan gained): no change

Substance: Coagulation factor VIII (FVIII): N2118Q
- other: cofactor (coagulant) activity in conditioned media, percent_of_wt ([1]; glycan lost): no change
- other: relative (specific) cofactor activity, percent_of_wt ([2]; glycan lost): no change
- expression_or_secretion ([5]; control: WT C domain): decreases
- expression_or_secretion, percent_of_wt ([3]; glycan lost): no change
- expression_or_secretion, percent_of_wt ([4]; glycan lost): no change

Substance: Coagulation factor VIII (FVIII): N2118Q + D2131N
- expression_or_secretion ([5]; control: D2131N C domain): abolishes

Substance: Coagulation factor VIII (FVIII): TM, A469S A2 domain
- expression_or_secretion [6]: increases

Substance: Coagulation factor VIII (FVIII): TM, A469T A2 domain
- expression_or_secretion [6]: increases

Substance: Coagulation factor VIII (FVIII): TM, G701S A2 domain
- expression_or_secretion [6]: decreases

Substance: Coagulation factor VIII (FVIII): TM, I566T A2 domain
- expression_or_secretion [6]: decreases

Substance: Coagulation factor VIII (FVIII): TM, M614T A2 domain
- expression_or_secretion [6]: no change

Substance: Coagulation factor VIII (FVIII): TM, WT C domain
- expression_or_secretion [6]: decreases

Substance: Coagulation factor VIII (FVIII): W2062S
- other: cofactor (coagulant) activity in conditioned media, percent_of_wt ([1]; glycan gained): decreases
- other: relative (specific) cofactor activity, percent_of_wt ([2]; glycan gained): decreases
- expression_or_secretion, percent_of_wt ([3]; glycan gained): no change
- expression_or_secretion, percent_of_wt ([4]; glycan gained): no change

From PMC5957299
